We go through eight sequences from the Immune Epitope Database (IEDB).

The target in experiment [1] is HLA-B*07:02. Description: IEDB peptide-MHC binding, purified MHC/competitive/fluorescence; filed as Kd, often an IC50 or EC50 that approximates it; ≥ and ≤ were set here for values at or beyond the usual limits of such assays.
A further experiment addresses HLA-B*39:01. Described as above. The conditions noted are these: source organism: Bacillus anthracis str. A0488.
The target in experiment [2] is HLA-B*51:01. The description is as above. The conditions noted are these: source organism: Bacillus anthracis str. A0488.
The next experiment addresses HLA-A*29:02. The description is as above. The conditions noted are these: source organism: Bacillus anthracis str. A0488.
The target in a further experiment is HLA-B*27:03. The experiment is described as above. The conditions noted are these: source organism: Bacillus anthracis str. A0488.
The next experiment deals with HLA-A*24:03. The experiment is described as above. To be noted: source organism: Bacillus anthracis str. A0488.
Experiment [3] deals with HLA-A*26:01. The description is as above. The conditions noted are these: source organism: Bacillus anthracis str. A0488.
The target in experiment [4] is HLA-B*15:01. The experiment is described as above. The conditions noted are these: source organism: Bacillus anthracis str. A0488.
Experiment [5] concerns the target HLA-A*02:03. The experiment is described as above. The conditions noted are these: source organism: Bacillus anthracis str. A0488.
A further experiment addresses HLA-B*46:01. Described as above. To be noted: source organism: Bacillus anthracis str. A0488.
A further experiment addresses HLA-A*02:11. The experiment is described as above. To be noted: source organism: Bacillus anthracis str. A0488.
Experiment [6] deals with HLA-A*02:01. The description is as above. To be noted: source organism: Bacillus anthracis str. A0488.
The target of another experiment is HLA-B*57:01. The description is as above. The conditions noted are these: source organism: Bacillus anthracis str. A0488.
Experiment [7] addresses HLA-B*18:01. Described as above. To be noted: source organism: Bacillus anthracis str. A0488.
Experiment [8] addresses HLA-A*03:01. Described as above. The conditions noted are these: source organism: Bacillus anthracis str. A0488.
Another experiment deals with HLA-A*02:19. The experiment is described as above. To be noted: source organism: Bacillus anthracis str. A0488.
A further experiment addresses HLA-A*23:01. Described as above. To be noted: source organism: Bacillus anthracis str. A0488.
The target of another experiment is HLA-C*07:02. Description: IEDB peptide-MHC binding, purified MHC/direct/fluorescence; filed as Kd, often an IC50 or EC50 that approximates it; ≥ and ≤ were set here for values at or beyond the usual limits of such assays.
Experiment [9] addresses HLA-A*02:03. The description is as above. The conditions noted are these: source organism: Variola virus.
The next experiment deals with HLA-C*03:03. Described as above.
Experiment [10] deals with HLA-A*02:01. The description is as above.
In a further experiment the target is HLA-A*69:01. The description is as above.
Experiment [11] has as its target HLA-A*31:01. Description: IEDB peptide-MHC binding, purified MHC/competitive/fluorescence; filed as Kd, often an IC50 or EC50 that approximates it; ≥ and ≤ were set here for values at or beyond the usual limits of such assays. The conditions noted are these: source organism: Variola virus.
Experiment [12] addresses HLA-B*51:01. Put plainly: IEDB peptide-MHC binding, purified MHC/direct/fluorescence; filed as Kd, often an IC50 or EC50 that approximates it; ≥ and ≤ were set here for values at or beyond the usual limits of such assays. To be noted: source organism: Baboon gamma-herpesvirus.
The target of another experiment is HLA-A*68:02. Put plainly: IEDB peptide-MHC binding, purified MHC/competitive/fluorescence; filed as Kd, often an IC50 or EC50 that approximates it; ≥ and ≤ were set here for values at or beyond the usual limits of such assays. The conditions noted are these: source organism: Human immunodeficiency virus 1.
In another experiment the target is HLA-B*44:02. Description: IEDB peptide-MHC binding, purified MHC/direct/fluorescence; filed as Kd, often an IC50 or EC50 that approximates it; ≥ and ≤ were set here for values at or beyond the usual limits of such assays.
For experiment [13], the target named is HLA-B*18:01. The experiment is described as above. The conditions noted are these: source organism: Influenza A virus (A/Turkey/MO/24093/99(H1N2)).
Another experiment has as its target HLA-B*40:01. The experiment is described as above. To be noted: source organism: Influenza A virus (A/Turkey/MO/24093/99(H1N2)).
A further experiment deals with HLA-B*83:01. Put plainly: IEDB peptide-MHC binding, purified MHC/competitive/fluorescence; filed as Kd, often an IC50 or EC50 that approximates it; ≥ and ≤ were set here for values at or beyond the usual limits of such assays. The conditions noted are these: source organism: Influenza A virus (A/Fort Monmouth/1/1947-mouse adapted(H1N1)).
In a further experiment the target is HLA-B*45:06. The experiment is described as above. The conditions noted are these: source organism: Influenza A virus (A/Fort Monmouth/1/1947-mouse adapted(H1N1)).
A further experiment deals with HLA-B*15:42. The experiment is described as above. The conditions noted are these: source organism: Influenza A virus (A/Fort Monmouth/1/1947-mouse adapted(H1N1)).
The target of experiment [14] is HLA-A*26:01. Description: IEDB peptide-MHC binding, purified MHC/direct/fluorescence; filed as Kd, often an IC50 or EC50 that approximates it; ≥ and ≤ were set here for values at or beyond the usual limits of such assays. The conditions noted are these: source organism: Yersinia pestis.
The target of experiment [15] is HLA-B*15:01. The description is as above. The conditions noted are these: source organism: Yersinia pestis.
The next experiment concerns the target HLA-A*01:01. The description is as above. The conditions noted are these: source organism: Yersinia pestis.
The target in the next experiment is HLA-A*11:01. Described as above. The conditions noted are these: source organism: Yersinia pestis.
The target of a further experiment is HLA-B*35:01. The description is as above. The conditions noted are these: source organism: Yersinia pestis.
A further experiment deals with HLA-B*08:01. The experiment is described as above. The conditions noted are these: source organism: Yersinia pestis.
The target of another experiment is HLA-B*27:05. The experiment is described as above. The conditions noted are these: source organism: Yersinia pestis.
The target of experiment [16] is HLA-A*03:01. Described as above. To be noted: source organism: Yersinia pestis.
The target of experiment [17] is HLA-A*31:01. The description is as above. To be noted: source organism: Yersinia pestis.
Another experiment has as its target HLA-B*58:01. The experiment is described as above. To be noted: source organism: Yersinia pestis.
Experiment [18] addresses HLA-B*07:02. The description is as above. The conditions noted are these: source organism: Yersinia pestis.
The mark [19] stands for this setting: source organism: Camelpox virus CMS.
The mark [20] stands for this setting: source organism: Yersinia pestis.

For PPKYTPRPA, the Kd with HLA-B*07:02 [1] (source organism: Escherichia coli 536) was ≥ 20 µM.
Take KLWASFFQG: the Kd in the experiment with HLA-B*39:01, in the experiment with HLA-B*51:01 [2], with HLA-A*29:02, in the experiment with HLA-B*27:03, with HLA-A*24:03 and in the experiment with HLA-A*26:01 [3] was ≥ 20 µM each time. Moreover, the Kd is ≥ 20 µM with HLA-B*15:01 [4]; ≥ 20 µM in the experiment with HLA-A*02:03 [5]; ≥ 20 µM with HLA-B*46:01; 0.0025 µM in the experiment with HLA-A*02:11; 0.104 µM with HLA-A*02:01 [6]; ≥ 20 µM with HLA-B*57:01. The Kd with HLA-B*18:01 [7], with HLA-A*03:01 [8], with HLA-A*02:19 and in the experiment with HLA-A*23:01 was ≥ 20 µM in each case.
Consider FYYNAFHWA, for which, in the experiment with HLA-C*07:02 (source organism: Homo sapiens), the dissociation constant (Kd) came out at 0.813 µM.
With HMIDKLFYV, the Kd with HLA-A*02:03 [9] was ≤ 0.001 µM; in the experiment with HLA-C*03:03 (source organism: Variola virus), 0.787 µM; with HLA-A*02:01 [10] (setting [19]), ≤ 0.001 µM; in the experiment with HLA-A*69:01 (setting [19]), 0.002 µM; with HLA-A*31:01 [11] it was 0.0215 µM.
As for VPGSETMCY, the Kd in the experiment with HLA-B*51:01 [12] and in the experiment with HLA-B*07:02 [1] (source organism: human gammaherpesvirus 4) was ≥ 20 µM in each case.
LYNTVAVLY: the Kd with HLA-C*07:02 (source organism: Human immunodeficiency virus 1) and in the experiment with HLA-A*68:02 was ≥ 20 µM each time.
Turning to MQIRGFVYF, the Kd is ≥ 20 µM with HLA-B*44:02 (source organism: Influenza A virus (A/Turkey/MO/24093/99(H1N2))); 0.119 µM with HLA-B*18:01 [13]; ≥ 20 µM with HLA-C*07:02 (source organism: Influenza A virus (A/Fort Monmouth/1/1947-mouse adapted(H1N1))); ≥ 20 µM with HLA-B*40:01; ≥ 5 µM with HLA-B*83:01; ≥ 5 µM with HLA-B*45:06. In the experiment with HLA-B*15:42, the Kd was ≥ 5 µM.
In the case of YGIPFPGSL, the Kd in the experiment with HLA-A*26:01 [14] was ≥ 20 µM; with HLA-B*15:01 [15], ≥ 20 µM; in the experiment with HLA-A*01:01, ≥ 20 µM; with HLA-A*11:01, ≥ 20 µM; in the experiment with HLA-B*44:02 (setting [20]) it was ≥ 20 µM; with HLA-B*35:01 it was 0.12 µM. The Kd was ≤ 0.001 µM in the experiment with HLA-C*03:03 (source organism: Yersinia pestis Nepal516); 14.3 µM in the experiment with HLA-A*02:01 [10] (setting [20]); ≥ 20 µM in the experiment with HLA-B*08:01; ≥ 20 µM in the experiment with HLA-B*27:05; ≥ 20 µM with HLA-A*03:01 [16]; ≥ 20 µM with HLA-A*31:01 [17]. For the same sequence, the Kd with HLA-B*58:01 is ≥ 20 µM; in the experiment with HLA-B*07:02 [18], 9.76 µM; with HLA-A*69:01 (setting [20]), ≥ 20 µM.

What is called Kd is the constant that tells how readily two partners part at equilibrium.
